Measurements taken from the Human Domainome abundance scans (Beltran et al. 2025).
± gives the uncertainty stated by the source.

B1: E3 ubiquitin-protein ligase TRIM36, residues 208 to 252; numbered along this chain, Q9NQ86 (parent)
chain: KILMCPEHETERINMYCELCRRPVCHLCKLGGNHANHRVTTMSSA

Variants of: B1
Assay: abundance fitness (aPCA) (normalised: wild type 0, dead -1); higher = more abundant; growth selection in yeast, the domain comes from the species named
Conditions: Homo sapiens

Abundance fitness: each site, then its substitutions
E18: Q -0.08 ± 0.073, K -0.172 ± 0.071, Y -0.416 ± 0.12, S -0.148 ± 0.057, N -0.151 ± 0.082, V -0.172 ± 0.069, R -0.385 ± 0.054, M -0.178 ± 0.094, H -0.343 ± 0.1, L -0.196 ± 0.052, P -0.269 ± 0.076, C -0.209 ± 0.083, G -0.123 ± 0.058, D 0.116 ± 0.083, W -0.236 ± 0.059, A -0.145 ± 0.055, T -0.147 ± 0.06
R12: E -0.016 ± 0.098, L -0.034 ± 0.071, G -0.057 ± 0.061, K -0.365 ± 0.28, S -0.38 ± 0.26, I -0.14 ± 0.079, D -0.539 ± 0.18, W -0.269 ± 0.083, P 0.186 ± 0.12, A -0.258 ± 0.12
L27: A 0.052 ± 0.05, C -0.196 ± 0.064
E7: C -0.209 ± 0.067, A -0.064 ± 0.056, G -0.292 ± 0.055, H 0.01 ± 0.13, L -0.127 ± 0.055, W -0.315 ± 0.065, P -0.783 ± 0.086, V -0.011 ± 0.064, F -0.129 ± 0.071, R -0.104 ± 0.045, K -0.085 ± 0.06, N -0.169 ± 0.099, Q -0.041 ± 0.058, S -0.103 ± 0.056, T -0.042 ± 0.062
E11: Q -0.079 ± 0.13, R -0.602 ± 0.081, W -0.52 ± 0.13, Y 0.082 ± 0.27, P -0.854 ± 0.42, V -0.126 ± 0.077, L -0.196 ± 0.11, K -0.259 ± 0.11, S -0.132 ± 0.097, C -0.773 ± 0.1, M -0.322 ± 0.13, G -0.047 ± 0.12, A -0.376 ± 0.074
I13: G 0.145 ± 0.12, L 0.032 ± 0.1, A -0.015 ± 0.078, M 0.049 ± 0.31, R -0.143 ± 0.12, W -0.035 ± 0.15, P 0.166 ± 0.14
R21: E 0.171 ± 0.083, T -0.061 ± 0.075, D 0.067 ± 0.11, V 0.01 ± 0.054, P -0.387 ± 0.088, W -0.416 ± 0.065, A 0.002 ± 0.053, G -0.116 ± 0.055, K 0.108 ± 0.071, C -0.083 ± 0.081, N -0.121 ± 0.07, Y 0.027 ± 0.14, Q -0.002 ± 0.11, S -0.002 ± 0.051, L -0.084 ± 0.052, F -0.425 ± 0.38
V24: E -0.293 ± 0.062, P -0.501 ± 0.064, D -0.453 ± 0.094, Q -0.431 ± 0.08, R -0.44 ± 0.055, W -0.351 ± 0.056, A -0.153 ± 0.056, M -0.133 ± 0.066, K -0.533 ± 0.077, N -0.49 ± 0.09, C -0.107 ± 0.11, L -0.129 ± 0.058, S -0.446 ± 0.059
P6: M -0.224 ± 0.066, T 0.018 ± 0.076, F -0.234 ± 0.094, Y -0.228 ± 0.067, D -0.092 ± 0.071, R -0.145 ± 0.049, C -0.235 ± 0.069, A -0.072 ± 0.062, G -0.14 ± 0.046, I -0.219 ± 0.084, E -0.016 ± 0.052, N -0.139 ± 0.1, V -0.069 ± 0.07, K 0.023 ± 0.078, H -0.108 ± 0.095, W -0.378 ± 0.078, Q -0.042 ± 0.071
H8: A -0.951 ± 0.065, V -1.13 ± 0.073, T -0.72 ± 0.075, S -0.786 ± 0.068, G -0.766 ± 0.055, Y -0.983 ± 0.15, R -0.841 ± 0.059, K -0.638 ± 0.065, D -0.858 ± 0.089, W -1.6 ± 0.2, F -0.795 ± 0.34, L -1.24 ± 0.08, N -0.819 ± 0.089, M -1.4 ± 0.22, C -0.611 ± 0.076, Q -0.716 ± 0.073
R22: N -0.291 ± 0.16, G -0.116 ± 0.058, Q 0.036 ± 0.059, S 0.047 ± 0.069, E 0.034 ± 0.062, K 0.068 ± 0.067, W -0.34 ± 0.079, A 0.01 ± 0.052, T -0.09 ± 0.1, F -0.113 ± 0.069, C -0.118 ± 0.062, M -0.163 ± 0.086, Y -0.265 ± 0.1, I -0.227 ± 0.11, D -0.197 ± 0.11, L -0.029 ± 0.075, H 0.013 ± 0.23, P -0.344 ± 0.077, V -0.01 ± 0.055
L19: H 0.004 ± 0.13, M 0.004 ± 0.07, P 0.029 ± 0.063, G 0.068 ± 0.047, F -0.287 ± 0.18, C 0.137 ± 0.067, K 0.052 ± 0.063, R 0.076 ± 0.049, Q 0.004 ± 0.067, N 0.169 ± 0.11, V 0.039 ± 0.061, E 0.117 ± 0.057, S 0.069 ± 0.058, W -0.088 ± 0.056, I 0.04 ± 0.08, D 0.021 ± 0.077
N14: A -0.037 ± 0.077, T 0.172 ± 0.1, S -0.041 ± 0.088, D -0.13 ± 0.35, R -0.149 ± 0.071, W -0.224 ± 0.072
